# T1: M.EcoR124INT methyltransferase (UniProt P10484 1-520; P10485 1-215)
# T1 construct: HsdM (modification subunit, M) of the Type I restriction-modification system EcoR124I; SNT: residues 1-215 of the parent specificity subunit HsdS (S) of EcoR124I, holding the N-terminal target recognition domain and the central conserved region; Complex formed beforehand (M and SNT), to which HsdR was added; M2 stoichiometry is printed for Type I MTases in general (M2S); 'two modified SNT …
# T1 sequence (looked up) 1: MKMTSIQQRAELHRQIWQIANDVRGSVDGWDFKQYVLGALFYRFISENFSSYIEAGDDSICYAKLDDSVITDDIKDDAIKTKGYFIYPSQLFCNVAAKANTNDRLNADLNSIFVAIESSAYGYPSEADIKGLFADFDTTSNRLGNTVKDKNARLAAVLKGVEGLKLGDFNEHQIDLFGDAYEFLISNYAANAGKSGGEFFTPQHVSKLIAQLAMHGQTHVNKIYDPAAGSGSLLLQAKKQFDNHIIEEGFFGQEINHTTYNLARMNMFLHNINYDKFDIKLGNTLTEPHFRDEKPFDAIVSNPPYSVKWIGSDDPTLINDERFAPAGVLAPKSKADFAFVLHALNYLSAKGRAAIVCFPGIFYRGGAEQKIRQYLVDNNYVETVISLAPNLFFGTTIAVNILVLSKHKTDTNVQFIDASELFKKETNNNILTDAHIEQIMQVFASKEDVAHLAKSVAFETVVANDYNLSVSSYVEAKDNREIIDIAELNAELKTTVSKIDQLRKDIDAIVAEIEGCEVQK
# T1 sequence (looked up) 2: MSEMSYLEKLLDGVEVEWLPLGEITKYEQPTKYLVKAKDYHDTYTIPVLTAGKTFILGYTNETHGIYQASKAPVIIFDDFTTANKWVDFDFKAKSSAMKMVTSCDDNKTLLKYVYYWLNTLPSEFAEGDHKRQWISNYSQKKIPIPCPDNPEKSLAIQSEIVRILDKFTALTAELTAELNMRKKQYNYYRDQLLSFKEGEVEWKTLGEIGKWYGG
# Experiments:
# [1] = molecular target: T1, M.EcoR124INT methyltransferase; assay: small-angle neutron scattering; ENase formed at 2:1 molar ratio HsdR:MTase, ca. 3 uM, buffer A; fully protonated complex in H2O, and complex with deuterated HsdR and protonated MTase in 40% D2O (MTase matched out); conditions: both partners purified
# [2] = molecular target: T1, M.EcoR124INT methyltransferase; assay: native gel or EMSA; purified HsdR mixed with MTase at 1:1 and 2:1 molar ratios, then with a 30 bp DNA duplex with the recognition sequence (1:1 enzyme:DNA); 2 uM MTase and DNA, 2 or 4 uM HsdR; 6% non-denaturing polyacrylamide gel, 150 V, 2.5 h, 0.25x TBE; no difference with 10 mM MgCl2; conditions: both partners purified
binder,measurement,setting,value
"HsdR from EcoR124I (enzyme, UniProt P10486 1-1038, looked up, HsdR (restriction / motor subunit) of the Type I restriction-modification system EcoR124I; about 120 kDa as printed; For one SANS sample the same protein was made about 75% deuterated (85% D2O minimal medium); also called R subunit; motor subunit; source: expressed and purified as described previously [24]; deuterated form from BL21 (DE3) with the expression plasmid pBGSR124) MTHQTHTIAESNNFIVLDKYIKAEPTGDSYQSESDLERELIQDLRNQGYEFISVKSQSAMLANVREQLQNLNGVVFNDSEWRRFTEQYLDNPSDGILDKTRKIHIDYICDFIFDDERLENIYLIDKKNLMRNKVQIIQQFEQAGSHANRYDVTILVNGLPLVQIELKKRGVAIREAFNQIHRYSKESFNSENSLFKYLQLFVISNGTDTRYFANTTKRDKNSFDFTMNWAKSDNTLIKDLKDFTATCFQKHTLLNVLVNYSVFDSSQTLLVMRPYQIAATERILWKIKSSFTAKNWSKPESGGYIWHTTGSGKTLTSFKAARLATELDFIDKVFFVVDRKDLDYQTMKEYQRFSPDSVNGSENTAGLKRNLDKDDNKIIVTTIQKLNNLMKAESDLPVYNQQVVFIFDECHRSQFGEAQKNLKKKFKRYYQFGFTGTPIFPENALGSETTASVFGRELHSYVITDAIRDEKVLKFKVDYNDVRPQFKSLETETDEKKLSAAENQQAFLHPMRIQEITQYILNNFRQKTHRTFPGSKGFNAMLAVSSVDAAKAYYATFKRLQEEAANKSATYKPLRIATIFSFAANEEQNAIGEISDETFDTSAMDSSAKEFLDAAIREYNSHFKTNFSTDSNGFQNYYRDLAQRVKNQDIDLLIVVGMFLTGFDAPTLNTLFVDKNLRYHGLMQAFSRTNRIYDATKTFGNIVTFRDLERSTIDAITLFGDKNTKNVVLEKSYTEYMEGFTDAATGEAKRGFMTVVSELEQRFPDPTSIESEKEKKDFVKLFGEYLRAENILQNYDEFATLKALQQIDLSDPVAVEKFKAEHYVDDEKFAELQTIRLPADRKIQDYRSAYNDIRDWQRREKEAEKKEKSTTDWDDVVFEVDLLKSQEINLDYILGLIFEHNRQNKGKGEMIEEVKRLIRSSLGNRAKEGLVVDFIQQTNLDDLPDKASIIDAFFTFAQREQQREAEALIKEENLNEDAAKRYIRTSLKREYATENGTELNETLPKLSPLNPQYKTKKQAVFQKIVSFIEKFKGVGGKI",stoichiometry N,[1],2 HsdR per complex
same,stoichiometry N,[2],2 HsdR per MTase

# Source: paper PMC3320862, “Structural and Functional Analysis of the Symmetrical Type I Restriction Endonuclease R.EcoR124INT” (PLOS One, 2012)
